Test: yeast display, Sf9 membrane polyspecificity reagent, FACS + sequencing; frameworks hold sequencing errors
Summary of the method: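 Sorting gates, low and high (top ~1%), were placed on anti-HA fluorescence to track expression and on streptavidin fluorescence to track reagent binding. A clone's polyreactivity label is taken from the gate it came out of. The reagent was 10% biotinylated, detergent-solubilized Sf9 membrane, applied for 1 hour at 4 °C to galactose-induced yeast display cells.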

Row | Sequence | polyreactivity (PSR sort gate)
1 | QVQLVESRGGLVQAGGSLRLSCAASGGTFSLNAMGWYRQAPGKERELVAANSKRSSTTYYADSVKGRFTISRDNAKNTVYLQMNSLKPEDTAVYYCAARVLRSRKPGPGYDYWGQGTQVTVSS | high polyreactivity
2 | QVQLVESRGGLVQAGGSLRLSCAASGIIFHFYAMGWYRQAPGKERELVAAINSRGGSTYYADSVKGRFTISRDNAKNTVYLQMNSLKPEDTAVYYCAAQYLFYGHDYWGQGTQVTVSS | low polyreactivity
3 | QVQLVESRGGLVQAGGSLRLSCAASGLIFASYAMGWNRQAPGKERELVAAISWSGGSTYYADSVKGRFTISRDNAKNTVYLQMNSLKPEDTAVYYCAAKRYAYGSLDYWGQGTQLTVSS | high polyreactivity
4 | QVQLVESRGGLVQAGGSLRLSCAASGLTFLYNAMGWYRQAPGKERELVAAISQSAGSTYYADSVKGRFTISRDNAKNTVYLQMNSLKPEDTAVYYCAAEWDTPDLVIYDYWGQGTQVTVSS | low polyreactivity
5 | QVQLVESRGGLVQAGGSLRLSCAASGRIFETNTMGWYRQAPGKEREFVAAITFSGGRTNYADSVKGRFTISRDNAKNTDYLPMNSLKPEDTAVYYCAAAGRRRKYYYWGQGTQVTVSS | high polyreactivity
6 | QVQLVESRGGLVQAGGSLRLSCAASGRIFRYNAMGWDRQAPGKERELVAAITRSGGRTYYADSVKGRFTISRDNAKNTVYLQMNSLKPEDTAVYYCAADKYPSSPYVGDVDYWGQGTQVTVSS | high polyreactivity
7 | QVQLVESRGGLVQAGGSLRLSCAASGRIFYGYAMGGYRQAPGKERELVAGISKRGGTTRYADSVKGRFTISRDNAKNTVYLQMNSLKPEETAVSSCAAESFGLYASPGEEYWGQGTQVTVSS | high polyreactivity
8 | QVQLVESRGGLVQAGGSLRLSCAASGRTFLYNAMGWYRQAPGKERELVAAITDGGNTYYADSVKGRFTISRDNAKNTVYLHMKSLNPEDTAVYYCNAYVLFYTYFTRGRFDFDYWGQGTQVTVSS | low polyreactivity
9 | QVQLVESRGGLVQAGGSLRLSCAASGRTRFYAMGRYIQAPGKERELVAVINASGDSTYYADSVKGRFTISRDNAKITVYLQMNSLKPEDTAVYYCAGDNRGEYDYWGQGTQVTVSS | low polyreactivity
10 | QVQLVESRGGLVQAGGSLRLSCAASGSIFGTNAMGRNRQAPGKERELVAAINSGGSTNYADSVKGRFTISRDNAKNTVYLQMNSLKPEDTAVYYCAADEGLWSPSRNAYDYDYWGQGTQVTVSS | low polyreactivity
11 | QVQLVESRGGLVQAGGSLRLSCAASGSIFRGYAMGWYRQAPGKERELVAAIRRGVITNYADSVKGRFTISRDNAKNTVYLQMNSLKPEDTAVYYCYAVRRWRTSQFDYWGQGTLVTVSS | low polyreactivity
12 | QVQLVESRGGLVQAGGSLRLSCAASGSTFNYYVMGWYRQAPGKERELVAAISRSGTSTYYADSVKGRFTISRDNAKNTVYLQMNSLKPEDTAVYYCAAYQPYYARTELDYWGQGTQVTVSS | high polyreactivity
13 | QVQLVESRGGLVQAGGSLRLSCAASGSTFRYYAMGWYRQAPGKERELVATITARGGSTYADSVKGRFTISRDNAKNTVYLQMNSLKPEDTAVYYCAKRYGRYWDSTYSGDYDYWGQGTQVTVSS | high polyreactivity
14 | QVQLVESRGGLVQAGGSLRLSCAASGSTFYIYAMGWYRQAPGKERELVAAIDWNDGSTYYADSVKGRFTISRDNAKNTVYLQMNSLKPEDTAVYYCAAAIYIYRDGTYDYWGQGTQVTVSS | high polyreactivity
15 | QVQLVESRGGLVQAGGSLRLSCAATGSIFFSNTMGWYRQAPGTEREMVAAITSTGTTNYADSVKGRFTISRDNAKKTVYLQMNSLKPEDTAVFYCAVRARRWRYNYWGQGTQVTVSS | high polyreactivity
16 | QVQLVESRGGLVQAGGSLRLSCASSGFTFSINAMGWYRQAPGNERELVASITWSGGRTYYADSVKGRFTISRDNAKNTVYLQMNSLKPEDTAVYYCAARSYGTSTYDYWGQGTQVTVSS | high polyreactivity
17 | QVQLVESRGGLVQAGGSLRLSCATSGIFVVYALGWYRQAPGKVRELVAAISSGVSTSYADSVKGRFTISRENAKNTVYLQMNSLKPEDTAVYYCNTLWGHKFIVPFRTREFYYWGQGTQVTVSS | low polyreactivity
18 | QVQLVESRGGLVQAGGSLRLSCSASGIIFEYYAMGWYRQAPGKERELVAAISSDTSTNYADSVKGRFTISRDNAKNTVYLQMNSLKPEDTAVYYCNADAYYDTYGICVGTDYDYWGQGTQVTVSS | low polyreactivity
19 | QVQLVESRGGLVQARGSLRLSCAASGRTFYPYAMGWYSPAPGKERELVATITGSGTTTYYADSVKGRFTLSRDNGNNTVYLQMNRRKPEDTAVYYSAADVWEVVTPYGTIDDDYWRQGTQVTVSS | high polyreactivity
20 | QVQLVESRGGLVQARGSLRLSCAASGSTLFRYTKGWYRQAPGKERELVAAITRSGGNTFYADSVKGRFTISRDNSKNTVYLQMNSLKPEDTAVYYCAARARYVNCQGFDYWGQVTQVTVSS | high polyreactivity

Row | Sequence | polyreactivity (PSR sort gate)
21 | QVQLVESRGRLVQAGGSLRLSCAASGSIFGTYAMGWYRHAPGKERELVAAISWSDGSTYYADSVKGRFTISRDNAKYTVYLQMNSLKPEATEVYFCSKVYRSIGANVSRYGLSYYYWGQGTQVTVSS | low polyreactivity
22 | QVQLVESRRGLVQAGGSLRLSCAASGSIFSGYVMGRYRKAPGKETELVAAITWSGGRTYYADSVKGRFTISRDYAKNTVYLQMNSLKPEDTAVYYCAKRNIKSSGYYYWGQGTQVTVSS | high polyreactivity
23 | QVQLVESRSGIVQAGRSLRLSCAASGSIFGSYVMGWYRQAPGKERELVAAITVRTGTTYYADSVKGRFTISLDNAKNTVYLQMKRLKPEDTAVYYCDSRYGPKYGYWGQGNQVTVSS | high polyreactivity
24 | QVQLVESSAGLVQAGGSLRLSCDASGSTFFYYAMGWYRQAPGKERELVAAISLSDGNTYYADSVKGRFTISRDNAKNTVYLQMNSLKPEDTAVYYCNRVGSQSMKYWGQGTQVTVSS | low polyreactivity
25 | QVQLVESSGGLVQAGGRLRLSCAASGSTFRGNAMGWYRQAPGKERELVAAITGSGGRTYYADSVKGRFTISRDNAKNTVYLQMNSLKPEDTAVYYCAARTPNIGGIYGYWGQGTQVSVSS | high polyreactivity
26 | QVQLVESSGGLVQAGGSLRLICAASGRIFSRYPMGWYRKAPGKERELVAAITYSGGNTYYADSVKGRFTISRDYAKNTVYLQMNSLKPEDTAVYYCNAYRPYYSYVSHEHYYWGQGTQVTVSS | high polyreactivity
27 | QVQLVESSGGLVQAGGSLRLSCAASGSIFPSNAMGWYRQAPGKERELVARITGGGGNTYYADSVKGRFTISRDNAKNTVYLQMNSLKPEDTAVYYCAADYTNWKTGSNEMYYWGQGTQVTVSS | low polyreactivity
28 | QVQLVESVGCLVQAGGSLRLSCAASGFNFGYNAMGWYRQAPGKERELVAAITWIGGTTYYADSVKGRFTISRYNAKYTVYLQMNILKPEDTAVDYCNALRRGVRDPYGYWGLGTQVTVSS | high polyreactivity
29 | QVQLVESVGCLVQAGGSLRLSCDASGIIFNQNTMGWYRPAPGKERQLVAAITSSVGSTYYADSVKGRFTISRDNAKNTVYLQMNSLKPEVTAVYYCAATGWVYRRSRDYWGQGTQVTVSS | low polyreactivity
30 | QVQLVESVGCLVQARGSLRLSCAASGFTFPHYAMGWYRQAPGKERELVAVISWSGSSTYYADSVKGRFTISRDNAKNTVYLKMNSLKPVVNAVYYCNTRKLYQVDYDYWGQGSQVTVSS | high polyreactivity
31 | QVQLVESVGGIVQAGGSLRLSCAASGSTRYNAMGWYIQAPGKERELVAYIRGNAGSTYYADSVKGRFTISRDNAKNTVYLQMNSLKPEDTAVYYCNARYWYRYGGYKPVGGYYWGQGTQVTVSS | high polyreactivity
32 | QVQLVESVGGLDQAGGSLPVSCAASGLTFTGYTMGWYRQAPWKERELVATISGSGGNTDYADSVKARFTISRDKAKNTVDLQMNSLKPEDTAVYYCASRRSGPLVLYYYWGQGTQVTVSS | low polyreactivity
33 | QVQLVESVGGLDQAGGSLRLTCAASVSIFRNYAMGWYRQAPGKERELVASIRYSGGRTNYADSVKGRFTISRDNAKNTVYVPMNSLTPEDTAVYYCAAATHYWYFYSFKDKSGFRGYYWGQGTHVTVSS | high polyreactivity
34 | QVQLVESVGGLFQAGGSLRLSCAASGSTFDYYSMVWYRQAPGKERELVAGIDSAGSTNYADSVKGRFTISRDNAKNTVYLQMNSLKTGRYRGLYCNVGKTITTYAFPTFDYWGQGTQVTVSS | low polyreactivity
35 | QVQLVESVGGLFQAGRSLRLSGAASGTTFVWNAMGWYRPAPGKERELVATITLSTGSTYYADSVKGRFTISRDNAKNSVYLQMNSLKPEDTAVYYGNTEIYVDIISDYGYWGQGTQVTVSS | low polyreactivity
36 | QVQLVESVGGLLQAGGSLRVSCAASGFTFYRYAMGWYRQAPGKERELVAAITRGGSTNYADSVKRRFTISRDNAKKTVYLQMNSLKPEDTAVYYCAVVSQRTPLRGDYWGQGTQVTVSS | high polyreactivity
37 | QVQLVESVGGLVEAGGSLRLSCASSGFISSHYAMGWYRQAPGKESELVAAITSGGSTYYADSVKGRFTISRDNAKNTVYLQMNSLKPEDTAVYYCAAYYRRWPRRYDYWGQGTQVTVSS | high polyreactivity
38 | QVQLVESVGGLVEAGRILRLSCAATGSTFPYNDLGWYRQAPGKQRELVADISGDSGSTYYADSVKGRFTISRDNAKNTVYLQMKSLKPEDTAVYYCAAEGLHYAGDYGTGYDNWGQGTQLTVSS | low polyreactivity
39 | QVQLVESVGGLVQAGGCLRITCAASGSTSDANAMGWYRTATGKERELVAAITTGGSTNYADSVKGRFTISRDNAKNTVFLQMNSLKPEDTAVFYCAVDLLRMTGDRGHDYWGQGTQVTVSS | low polyreactivity
40 | QVQLVESVGGLVQAGGILRLSCAASGRTFTLNAMGWYRQAPGKERELVATISRRGGSTYYADSVKGRFTISRDNAKNTVYLQMISLKPEDTAVYDCNVDRLGKRYDNWGQGSQVTVSS | low polyreactivity

— the nanobody polyreactivity screen of Harvey et al. (2022)
